The Kd is a measure of binding affinity in units of concentration. As a reminder, the koff is the first-order rate constant of dissociation. By kon is commonly meant a measure of how fast the partners come together.

Experiment [1] addresses T1, recombinant hAng-2 (C-His, R&D Systems) (human, UniProt O15123 19-496).
T1 construct: Bought protein; also called human Ang-2 protein; C-terminal histidine-tagged human Ang2 (R&D Systems); not shown: C-terminal His tag
T1 sequence: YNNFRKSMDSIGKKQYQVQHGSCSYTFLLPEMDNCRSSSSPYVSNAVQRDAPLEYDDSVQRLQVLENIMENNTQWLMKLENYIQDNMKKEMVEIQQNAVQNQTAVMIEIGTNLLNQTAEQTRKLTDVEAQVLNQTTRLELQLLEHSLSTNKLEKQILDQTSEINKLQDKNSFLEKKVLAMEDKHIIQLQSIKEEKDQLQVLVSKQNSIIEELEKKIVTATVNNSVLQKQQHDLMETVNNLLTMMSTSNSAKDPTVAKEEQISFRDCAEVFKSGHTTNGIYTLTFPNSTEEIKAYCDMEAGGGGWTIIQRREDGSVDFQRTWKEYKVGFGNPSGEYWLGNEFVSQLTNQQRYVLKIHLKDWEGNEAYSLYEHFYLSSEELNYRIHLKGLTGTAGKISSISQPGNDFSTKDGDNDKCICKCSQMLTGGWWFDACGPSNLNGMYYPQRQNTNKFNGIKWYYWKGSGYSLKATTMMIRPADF
Briefly: SPR, BIAcore T100; hAng2 (C-His) captured by anti-His antibody on CM5, antibody as analyte. The procedure:
The binding affinity (KD values) of the antibodies to human Ang2 protein was measured by an SPR method using a BIAcore T100 (GE Healthcare). 25 μg/ml anti-His antibody was immobilized on a CM5 sensor chip (GE healthcare) using a pH 5.0 acetate solution and an amine coupling kit (GE Healthcare). 6 μg/ml of a recombinant hAng2 (C-His, R&D Systems) protein was flowed onto the chip to be captured at 100 to 200 RU levels.
Background: In SPR one partner is held on a chip, and binding of the other changes the refractive index at the surface.

The target in another experiment is T2, FLAG-tagged hAng-2 (human, UniProt O15123 19-496, limits assumed).
T2 construct: not shown: FLAG tag
T2 sequence: T1 sequence
Briefly: Ang2-Tie2 competition ELISA: plate coated with hTie2-Fc, 400 ng/ml FLAG-tagged hAng-2 with antibody at varied concentration, detection with anti-FLAG-HRP; blocked ligand/receptor: hTie2-Fc. The procedure:
More specifically, MaxiSorp™ flat-bottom plate (Nunc) of 96-well was coated with hTie2-Fc (R&D Systems) which is a protein bound with 4 μg/ml of Fc of human IgG1. After that, the plate was washed five times with 0.05% (v/v) Tween-20-containing PBS (phosphate buffer saline) and then blocked with 1% (v/v) BSA (bovine serum albumin; Sigma)-containing PBS at a room temperature for 2 hour.
For Ang2:Tie2 competition ELISA, each anti-Ang2 antibody obtained in Example 2 was placed at various concentrations of 400 nM-0.001 nM into each well coated with the hTie-2/Fc fusion protein along with 1% (v/v) BSA and 400 ng/ml of a FLAG-tagged hAng-2 and then, the plate was allowed to react at a room temperature for 2 hours and washed five times with PBST. After that, an anti-FLAG antibody (Sigma) conjugated with HRP diluted in 1% (v/v) BSA-containing PBS at a ratio of 1:5,000 (v/v) was added in an amount of 100 μl to each well to react at a room temperature for 1 hour and then, the plate was washed five times with PBST. Lastly, 100 μl of TMB substrate (Cell Signaling) was added to each well of the plate to induce color development for 3 min. and then, the reaction was ceased by the addition of 100 μl of Stop solution (Cell Signaling) and OD450 values were measured on a plate reader (Molecular Devices). […]
Background: In an ELISA, binding on a coated surface is turned into a signal by an enzyme label.

Residue numbers refer to the chain shown, from its start.

B1: h10D6-OPTI-1 (antibody, human IgG1, V domains shown)
VH: QVQLQESGPGLVKPSETLSLTCAVSGYSITSDYAWNWIRQPPGKGLEWMGKISYSGKTDYNPSLKSRSTISRDTSKNQFSLKLSSVTAADTAVYYCARGNFEGAMDYWGQGTLVTVSS
VL: DIQMTQSPSSLSASVGDRVTITCKASQSVSNDVAWYQQKPGKAPKLLIYYASNRYPGVPSRFSGSGSGTDFTLTISSLQPEDFATYYCQQDYSSPWTFGQGTKLEIK
For B1, in experiment [1], the equilibrium dissociation constant (Kd) came to 0.68 nM, the koff came to 0.000321 s⁻¹ and the association rate constant (kon) was determined as 474000 M⁻¹ s⁻¹.

B2: h10D6-OPTI-3 (antibody, human IgG1, V domains shown)
VH: EVQLVESGGGLVQPGGSLRLSCAASGYSITSDYAWNWVRQAPGKGLEWMGKISYSGKTDYNPSLKSRSTISRDTSKNTFYLQMNSLRAEDTAVYYCARGNFEGAMDYWGQGTLVTVSS
VL: B1 VL
For the molecule B2, in experiment [1], the Kd is 0.49 nM, the koff was 0.000307 s⁻¹ and the kon was determined as 624000 M⁻¹ s⁻¹.

B3: 10D6-HU2 (antibody, V domains shown)
VH: B1 VH with K51Y, S53N, K57N
VL: B1 VL
notes: Humanized antibody; also called humanized antibody 10D6-HU2
In the case of B3, in experiment [1], the dissociation constant Kd was 47 nM, the off-rate (koff) was 0.00346 s⁻¹ and the on-rate constant (kon) was 73000 M⁻¹ s⁻¹.

B4: h10D6-OPTI-43 (antibody, human IgG1, V domains shown)
VH: B1 VH
VL: B1 VL with A34H
On to B4, for which, in experiment [1], the dissociation constant (Kd) amounted to 0.38 nM, the koff came to 0.000576 s⁻¹ and the on-rate (kon) came to 1.53e+06 M⁻¹ s⁻¹.

B5: h10D6-OPTI-70 (antibody, human IgG1, V domains shown)
VH: B2 VH
VL: B1 VL with N53I, R54P
B5: in experiment [1], the Kd is 0.437 nM, the koff stood at 0.000116 s⁻¹ and the association rate constant (kon) was 265000 M⁻¹ s⁻¹.

B6: h10D6-OPTI-17 (antibody, human IgG1, V domains shown)
VH: B2 VH with S53N, S55A, K57N
VL: B1 VL with A34H
Consider B6, for which, in experiment [1], the Kd was determined as 0.76 nM, the off-rate (koff) amounted to 0.00035 s⁻¹ and the kon came to 460000 M⁻¹ s⁻¹.

B7: h10D6-OPTI-16 (antibody, human IgG1, V domains shown)
VH: B2 VH
VL: B1 VL with A34H
For the molecule B7, in experiment [1], the Kd came to 0.92 nM, the dissociation rate constant (koff) was found to be 0.000443 s⁻¹ and the association rate constant (kon) amounted to 479000 M⁻¹ s⁻¹.

B8: h10D6-OPTI-4 (antibody, human IgG1, V domains shown)
VH: B2 VH with S53N, S55A, K57N
VL: B1 VL
As for B8, in experiment [1], the Kd came out at 0.33 nM, the koff turned out to be 0.000246 s⁻¹ and the kon is 736000 M⁻¹ s⁻¹.

B9: h10D6-OPTI-55 (antibody, human IgG1, V domains shown)
VH: B1 VH with S53N, S55A, K57N
VL: B1 VL with A34H
As for B9, in experiment [1], the Kd came out at 0.14 nM, the off-rate constant (koff) is 8.49e-05 s⁻¹ and the on-rate constant (kon) turned out to be 621000 M⁻¹ s⁻¹.

B10: h10D6-OPTI-68 (antibody, human IgG1, V domains shown)
VH: B2 VH
VL: B1 VL with S28F, N31T, A34H
As to B10, in experiment [1], the Kd amounted to 0.317 nM, the koff was found to be 0.00017 s⁻¹ and the kon amounted to 536000 M⁻¹ s⁻¹.

B11: 10D6-HU5 (antibody, V domains shown)
VH: B1 VH with M49I, K51Y, S53N, K57N, S68V, R72V
VL: B1 VL
notes: Humanized antibody; also called humanized antibody 10D6-HU5
Regarding B11, in experiment [1], the Kd turned out to be 64 nM, the koff was 0.00312 s⁻¹ and the kon stood at 48600 M⁻¹ s⁻¹.

B12: h10D6-OPTI-42 (antibody, human IgG1, V domains shown)
VH: B1 VH with M49I, K51Y, S53N, K57N, S68V, R72V
VL: B1 VL with A34H, Q90H, W96F
Take B12: in experiment [1], the Kd came out at 0.85 nM, the koff was 0.000286 s⁻¹ and the on-rate (kon) stood at 336000 M⁻¹ s⁻¹.

B13: 10D6-HU3 (antibody, V domains shown)
VH: B2 VH with K51Y, S53N, K57N
VL: B1 VL
notes: Humanized antibody; also called humanized antibody 10D6-HU3
B13: in experiment [1], the dissociation constant (Kd) was 43 nM, the koff stood at 0.00194 s⁻¹ and the kon was determined as 45000 M⁻¹ s⁻¹.

B14: h10D6-OPTI-2 (antibody, human IgG1, V domains shown)
VH: B1 VH with S53N, S55A, K57N
VL: B1 VL
In the case of B14, in experiment [1], the dissociation constant Kd came out at 0.34 nM, the off-rate (koff) was 0.000149 s⁻¹ and the kon is 424000 M⁻¹ s⁻¹.

B15: h10D6-OPTI-63 (antibody, human IgG1, V domains shown)
VH: B1 VH
VL: B1 VL with S28F, N31T, A34H
For B15, in experiment [1], the equilibrium dissociation constant (Kd) worked out at 0.0277 nM, the off-rate constant (koff) is 7.42e-05 s⁻¹ and the on-rate constant (kon) turned out to be 2.68e+06 M⁻¹ s⁻¹.

B16: 10D6-HU1 (antibody, V domains shown)
VH: B1 VH with T30S, M49I, K51Y, S53N, K57N, S68V, R72V
VL: B1 VL
notes: Humanized antibody; also called humanized antibody 10D6-HU1
As to B16, in experiment [1], the equilibrium dissociation constant (Kd) is 84 nM, the koff is 0.0026 s⁻¹ and the kon was 30800 M⁻¹ s⁻¹.

B17: h10D6-OPTI-67 (antibody, human IgG1, V domains shown)
VH: B1 VH
VL: B1 VL with A34H, N53I, R54P
In the case of B17, in experiment [1], the dissociation constant Kd was determined as 0.000129 nM, the koff was 2.68e-07 s⁻¹ and the kon turned out to be 2.08e+06 M⁻¹ s⁻¹.

B18: h10D6-OPTI-65 (antibody, human IgG1, V domains shown)
VH: B1 VH
VL: B1 VL with N53I, R54P
Turning to B18, the off-rate constant (koff) in experiment [1] turned out to be 2.25e-05 s⁻¹.

B19: 4H10 (antibody, V domains shown)
VH: EVQLLESGGGLVQPGGSLRLSCAASGFTFSSYDMSWVRQAPGKGLEWVSLISPDSSSIYYADSVKGRFTISRDNSKNTLYLQMNSLRAEDTAVYYCAKDLISFWRGGFDYWGQGTLVTVSS
VL: QSVLTQPPSASGTPGQRVTISCSGSSSNIGSNYVNWYQQLPGTAPKLLIYADSNRPSGVPDRFSGSKSGTSASLAISGLRSEDEADYYCGSWDYSLSGYVFGGGTKLTVLG
notes: also called anti-Ang2 antibody 4H10
For B19, the “IC50 (read off the curve)” value in the experiment with FLAG-tagged hAng-2 is roughly 0.2 nM.

The values are drawn from US20160053025A1 (SAMSUNG ELECTRONICS, published 2016).
